Reference: US20260241049A1, “Radiopharmaceutical Compositions Targeting Glypican-3 and Uses Thereof” (RayzeBio, Inc., priority 2023, published 2026)
Starred links: 1 amine or outer side, 2 acyl side, 3 side chain; linkers in the order of their positions; H or OH if unused. Positions of bridges follow the written chain, without caps; N, C: chain ends. Non-standard residues stand in square brackets, D forms with d. Primed or numbered codes have the meaning given here. *: point of attachment. YaeCOpipzaa = 2-amino-3-(4-(2-(4-(carboxymethyl)piperazine-1-carboxamido)ethoxy)phenyl)propanoic acid, O=C(NCCOc1ccc(C[C@H](N[*:1])C(=O)[*:2])cc1)N1CCN(CC(=O)[*:3])CC1; F4amCOpipzaa = 2-amino-3-(4-((4-(carboxymethyl)piperazine-1-carboxamido)methyl)phenyl)propanoic acid, O=C(NCc1ccc(C[C@H](N[*:1])C(=O)[*:2])cc1)N1CCN(CC(=O)[*:3])CC1; F4aaopipzaa = 2-amino-3-(4-(2-(4-(carboxymethyl)piperazin-1-yl)-2-oxoethoxy)phenyl)propanoic acid, O=C(COc1ccc(C[C@H](N[*:1])C(=O)[*:2])cc1)N1CCN(CC(=O)[*:3])CC1; DOTA‑Lu = DOTA-lutetium(175) amide on the side-chain amine, O=C([O-])CN1CCN(CC(=O)[O-])CCN(CC(=O)*)CCN(CC(=O)[O-])CC1.[175Lu+3]; Thr(Me) = O-methyl threonine, (3R)-2-amino-3-methoxybutanoic acid, CO[C@H](C)[C@H](N[*:1])C(=O)[*:2]; F4aao = 4-(carboxymethoxy)-L-phenylalanine, O=C([C@H](Cc1ccc(OCC(=O)[*:3])cc1)N[*:1])[*:2]; MeHseMe(6) = (2S)-4-methoxy-2-(methylamino)butanoic acid, COCC[C@@H](C(=O)[*:2])N(C)[*:1]; MeHseMe = N-methyl-O-methyl-L-homoserine, COCC[C@@H](C(=O)[*:2])N(C)[*:1]; Thr(Me)(3) = TMe, O-methyl-L-threonine, CO[C@H](C)[C@H](N[*:1])C(=O)[*:2]; Phe(4-(1-Me-pyrazol-4-yl)) = Cn1cc(-c2ccc(C[C@H](N)C(=O)O)cc2)cn1; DOTA‑Lu(3) = DOTA chelate with cold lutetium-175, amide-linked; TMe = O-methyl-L-threonine, CO[C@H](C)[C@H](N[*:1])C(=O)[*:2]; NMeAla(isoquinolin-7-yl) = CN[C@@H](Cc1ccc2ccncc2c1)C(=O)O; Phe(4-NHCONH2) = NC(=O)Nc1ccc(C[C@H](N)C(=O)O)cc1; 3Pal(6-Ph) = N[C@@H](Cc1ccc(-c2ccccc2)nc1)C(=O)O; Phe(4-COOH) = N[C@@H](Cc1ccc(C(=O)O)cc1)C(=O)O; NMe2Nal = CN[C@@H](Cc1ccc2ccccc2c1)C(=O)O; NMeI = CC[C@H](C)[C@H](NC)C(=O)O; NMeQ = CN[C@@H](CCC(N)=O)C(=O)O; NMeK = CN[C@@H](CCCCN)C(=O)O; NMeC = CN[C@@H](CS)C(=O)O

B1: Macrocyclic peptide of Example 2-20 (SEQ ID No. 38) (peptide)
peptide: {CH2CO}-[NMeQ][MeHseMe]D[NMeQ][Phe(4-COOH)][Thr(Me)]I[F4amCOpipzaa][NMe2Nal]G[3Pal(6-Ph)][NMeC]-NH2
modifications: thioether N-12
SMILES: CC[C@H](C)[C@@H]1NC(=O)[C@H]([C@@H](C)OC)NC(=O)[C@H](Cc2ccc(C(=O)O)cc2)NC(=O)[C@H](CCC(N)=O)N(C)C(=O)[C@H](CC(=O)O)NC(=O)[C@H](CCOC)N(C)C(=O)[C@H](CCC(N)=O)N(C)C(=O)CSC[C@@H](C(N)=O)N(C)C(=O)[C@H](Cc2ccc(-c3ccccc3)nc2)NC(=O)CNC(=O)[C@H](Cc2ccc3ccccc3c2)N(C)C(=O)[C@H](Cc2ccc(CNC(=O)N3CCN(CC(=O)O)CC3)cc2)NC1=O
B2: Macrocyclic peptide of Example 2-21 (SEQ ID No. 39) (peptide)
peptide: {CH2CO}-[NMeQ][MeHseMe]D[NMeQ][Phe(4-COOH)][Thr(Me)]I[Phe(4-NHCONH2)][NMe2Nal]G[3Pal(6-Ph)][NMeC]-NH2
modifications: thioether N-12
SMILES: CC[C@H](C)[C@@H]1NC(=O)[C@H]([C@@H](C)OC)NC(=O)[C@H](Cc2ccc(C(=O)O)cc2)NC(=O)[C@H](CCC(N)=O)N(C)C(=O)[C@H](CC(=O)O)NC(=O)[C@H](CCOC)N(C)C(=O)[C@H](CCC(N)=O)N(C)C(=O)CSC[C@@H](C(N)=O)N(C)C(=O)[C@H](Cc2ccc(-c3ccccc3)nc2)NC(=O)CNC(=O)[C@H](Cc2ccc3ccccc3c2)N(C)C(=O)[C@H](Cc2ccc(NC(N)=O)cc2)NC1=O
B3: Macrocyclic peptide of Example 2-22 (SEQ ID No. 40) (peptide)
peptide: {CH2CO}-[NMeQ][MeHseMe]D[NMeQ][Phe(4-COOH)][Thr(Me)(3)]I[F4aaopipzaa][NMe2Nal]G[3Pal(6-Ph)][NMeC]-NH2
modifications: thioether N-12
SMILES: CC[C@H](C)[C@@H]1NC(=O)[C@H]([C@@H](C)OC)NC(=O)[C@H](Cc2ccc(C(=O)O)cc2)NC(=O)[C@H](CCC(N)=O)N(C)C(=O)[C@H](CC(=O)O)NC(=O)[C@H](CCOC)N(C)C(=O)[C@H](CCC(N)=O)N(C)C(=O)CSC[C@@H](C(N)=O)N(C)C(=O)[C@H](Cc2ccc(-c3ccccc3)nc2)NC(=O)CNC(=O)[C@H](Cc2ccc3ccccc3c2)N(C)C(=O)[C@H](Cc2ccc(OCC(=O)N3CCN(CC(=O)O)CC3)cc2)NC1=O
B4: Lu-C-31 (peptide)
peptide: Ac-[NMeK](DOTA‑Lu)[NMeI]D[NMeQ][Phe(4-COOH)][TMe]I[F4aao][NMeAla(isoquinolin-7-yl)]G[3Pal(6-Ph)][NMeC][dE]-NH2
modifications: bridge N-12; not fully specified (bridges); printed as MeK(DOTA-Lu)-MeI-D-MeQ-F4COO-TMe-I-F4aao-MeNal27N-G-3Py6Ph-MeC-de-NH2
B5: Macrocyclic peptide of Example 2-18 (SEQ ID No. 36) (peptide)
peptide: {CH2CO}-[NMeQ][MeHseMe]D[NMeQ][Phe(4-COOH)][Thr(Me)(3)]I[F4aao][NMeAla(isoquinolin-7-yl)]G[Phe(4-(1-Me-pyrazol-4-yl))][NMeC]-NH2
modifications: thioether N-12
SMILES: CC[C@H](C)[C@@H]1NC(=O)[C@H]([C@@H](C)OC)NC(=O)[C@H](Cc2ccc(C(=O)O)cc2)NC(=O)[C@H](CCC(N)=O)N(C)C(=O)[C@H](CC(=O)O)NC(=O)[C@H](CCOC)N(C)C(=O)[C@H](CCC(N)=O)N(C)C(=O)CSC[C@@H](C(N)=O)N(C)C(=O)[C@H](Cc2ccc(-c3cnn(C)c3)cc2)NC(=O)CNC(=O)[C@H](Cc2ccc3ccncc3c2)N(C)C(=O)[C@H](Cc2ccc(OCC(=O)O)cc2)NC1=O
B6: Macrocyclic peptide of Example 2-19 (SEQ ID No. 37) (peptide)
peptide: {CH2CO}-[NMeQ][MeHseMe]D[NMeQ][Phe(4-COOH)][Thr(Me)]I[YaeCOpipzaa][NMe2Nal]G[3Pal(6-Ph)][NMeC]-NH2
modifications: thioether N-12
SMILES: CC[C@H](C)[C@@H]1NC(=O)[C@H]([C@@H](C)OC)NC(=O)[C@H](Cc2ccc(C(=O)O)cc2)NC(=O)[C@H](CCC(N)=O)N(C)C(=O)[C@H](CC(=O)O)NC(=O)[C@H](CCOC)N(C)C(=O)[C@H](CCC(N)=O)N(C)C(=O)CSC[C@@H](C(N)=O)N(C)C(=O)[C@H](Cc2ccc(-c3ccccc3)nc2)NC(=O)CNC(=O)[C@H](Cc2ccc3ccccc3c2)N(C)C(=O)[C@H](Cc2ccc(OCCNC(=O)N3CCN(CC(=O)O)CC3)cc2)NC1=O

Biological target: T1, Human Glypican3-Fc (ACRO Biosystems, GP3-H5258) (human, UniProt P51654 25-559)
T1 construct: Bought fusion protein, captured in Methods B-2, B-3 and B-4; Catalogue number is printed only in Method B-2; not shown: Fc part of the bought fusion
Assay: SPR (Biacore T200), Method B-2: human Glypican3-Fc captured by anti-human Fc on CM3 chip, peptide as analyte
Description: A CM3 sensor chip (Cytiva) was inserted into a Biacore T200 (Cytiva), primed three times with a running buffer: HBS-P-+, pH 7.4 (Cytiva), and equilibrated at a flow rate of 30 μL/min. Using the Anti-Fc Capture Kit (Cytiva), 50 LL each of 60 mM EDC solution (Cytiva) and 650 mM NHS solution (Cytiva) were mixed, and then reacted at a flow rate of 10 μL/min for 420 seconds, 150 μL of […] Anti-human IgG (Fc) Antibody solution was prepared by diluting with 10 mM acetic acid solution (pH 5.0), reacted at a flow rate of 10 μL/min for 420 seconds, and immobilized on a CM3 sensor chip. After immobilization, 1.0 M ethanolamine aqueous solution (Cytiva) was allowed to react for 420 seconds at a flow rate of 10 μL/min for capping. Human Glypican3-Fc (ACRO Biosystems, GP3-H5258) was allowed to react for 60 seconds at a flow rate of 10 μL/min. After capturing human Glypican3-Fc, a peptide solution prepared to 10 mM in DMSO solution was diluted with a running buffer to a final concentration of 10 μM. […] Using the above samples, peptide kinetics for Glypican3 was obtained by SPR measurement. Kinetics evaluation of Glypican3 was performed by SPR measurements at a flow rate of 10 μL/min. setting the association time to 120 seconds and the disassociation time to 600 seconds.
The obtained data by Method B-1, Method B-2, Method B-3 and Method B-4 were analyzed by follow. Single Cycle Kinetics was used as the kinetics evaluation model, and curve fitting was performed using Biacore T200 Evaluation Software Version 3.0 (Cytiva).

Binder	Kd [nM]
Ac-[NMeK](DOTA‑Lu(3))[MeHseMe(6)]D[NMeQ][Phe(4-COOH)][TMe]IY[NMeAla(isoquinolin-7-yl)]G[3Pal(6-Ph)][NMeC]-NH2 (bridge N-12; not fully specified (bridges); also: cold Lu-175 chelated by DOTA) [Lu-C-45]	0.74
B1	0.7
B2	0.4
B3	0.8
B4	7.05
B5	3.8
B6	0.5
